To fix the notation:
B1: Isoform 5 of Intermediate filament family orphan 1 (Homo sapiens), Q0D2I5-5 (parent)
chain: MNPLFGPNLFLLQQEQQGLAGPLGDSLGGDHFAGGGDLPPAPLSPAGPAAYSPPGPGPAPPAAMALRNDLGSNINVLKTLNLRFRCFLAKVHELERRNRLLEKQLQQALEEGKQGRRGLGRRDQAVQTGFVSPIRPLGLQLGARPAAVCSPSARVLGSPARSPAGPLAPSAASLSSSSTSTSTTYSSSARFMPGTIWSFSHARRLGPGLEPTLVQGPGLSWVHPDGVGVQIDTITPEIRALYNVLAKVKRERDEYKRRWEEEYTVRIQLQDRVNELQEEAQEADACQEELALKVEQLKAELVVFKGLMSNNLSELDTKIQEKAMKVDMDICRRIDITAKLCDVAQQRNCEDMIQMFQKKLVPSMGGRKRERKAAVEEDTSLSESEGPRQPDGDEEESTALSINEEMQRMLNQLREYDFEDDCDSLTWEETEETLLLWEDFSGYAMAAAEAQGEQQEDSLEKVIKDTESLFKTREKEYQETIDQIELELATAKNDMNRHLHEYMEMCSMKRGLDVQMETCRRLITQSGDRKSPAFTAVPLSDPPPPPSEAEDSDRDVSSDSSMR
B2: Prelamin-A/C (Homo sapiens), P02545-1 (parent)
chain: METPSQRRATRSGAQASSTPLSPTRITRLQEKEDLQELNDRLAVYIDRVRSLETENAGLRLRITESEEVVSREVSGIKAAYEAELGDARKTLDSVAKERARLQLELSKVREEFKELKARNTKKEGDLIAAQARLKDLEALLNSKEAALSTALSEKRTLEGELHDLRGQVAKLEAALGEAKKQLQDEMLRRVDAENRLQTMKEELDFQKNIYSEELRETKRRHETRLVEIDNGKQREFESRLADALQELRAQHEDQVEQYKKELEKTYSAKLDNARQSAERNSNLVGAAHEELQQSRIRIDSLSAQLSQLQKQLAAKEAKLRDLEDSLARERDTSRRLLAEKEREMAEMRARMQQQLDEYQELLDIKLALDMEIHAYRKLLEGEEERLRLSPSPTSQRSRGRASSHSSQTQGGGSVTKKRKLESTESRSSFSQHARTSGRVAVEEVDEEGKFVRLRNKSNEDQSMGNWQIKRQNGDDPLLTYRFPPKFTLKAGQVVTIWAAGAGATHSPPTDLVWKAQNTWGCGNSLRTALINSTGEEVAMRKLVRSVTVVEDDEDEDGDDLLHHHHGSHCSSSGDPAEYNLRSRTVLCGTCGQPADKASASGSGAQVGGPISSGSSASSVTVTRSYRSVGGSGGGSFGDNLVTRSYLLGNSSPRTQSPQNCSIM

Variants of B1 are the subject of the first experiment. To be noted: with xrcc4_human XRCC4, Q13426.
Chain of xrcc4_human XRCC4, Q13426 (Q13426 whole entry): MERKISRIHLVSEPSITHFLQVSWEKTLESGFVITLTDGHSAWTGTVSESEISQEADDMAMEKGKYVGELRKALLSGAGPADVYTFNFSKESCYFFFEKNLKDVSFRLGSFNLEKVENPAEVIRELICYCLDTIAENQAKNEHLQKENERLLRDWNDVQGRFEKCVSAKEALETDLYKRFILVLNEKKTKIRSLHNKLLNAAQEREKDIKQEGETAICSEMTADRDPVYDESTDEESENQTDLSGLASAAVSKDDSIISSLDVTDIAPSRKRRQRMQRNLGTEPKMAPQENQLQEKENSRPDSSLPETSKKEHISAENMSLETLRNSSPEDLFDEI
Turning to I484R;A491R, the “effect of a mutation on the interaction” value is “disrupting interaction strength”.

As for D494A;D513A;R520A, the “effect of a mutation on the interaction” value is given as “disrupting interaction strength”.

As for C519R, the “effect of a mutation on the interaction” value was “disrupting interaction strength”.

Turning to M516R;C519R, the “effect of a mutation on the interaction” value is “disrupting interaction strength”.

For the variant D494A;R520A, the “effect of a mutation on the interaction” value is “disrupting interaction strength”.

In the next experiment the parent is B1. To be noted: with lmna_human LMNA.
Consider A89T, for which the “effect of a mutation on the interaction” value was “with no effect”.

With A89V, the “effect of a mutation on the interaction” value was “with no effect”.

Turning to N73D, the “effect of a mutation on the interaction” value is “disrupting interaction strength”.

As for N73K, the “effect of a mutation on the interaction” value is “decreasing interaction strength”.

For R85H, the “effect of a mutation on the interaction” value is listed as “disrupting interaction strength”.

On to A65V, for which the “effect of a mutation on the interaction” value is given as “with no effect”.

In the case of A65P, the “effect of a mutation on the interaction” value is on record as “with no effect”.

The variants in another experiment derive from B1. Particulars: with lmna_human LMNA. This is another data set of the same source.
Regarding N73D;R85H, the “effect of a mutation on the interaction” value is given as “disrupting interaction strength”.

The variants in a further experiment derive from B2. To be noted: with iffo1_human IFFO1, Q0D2I5.
For R386M, the “effect of a mutation on the interaction” value was “disrupting interaction strength”.

In the case of E358K, the “effect of a mutation on the interaction” value was “disrupting interaction strength”.

The values are drawn from IntAct's records for PubMed 31548606.
